Laboratory results published in US20120094909A1 (Bristol-Myers Squibb, published 2012).
Numbering of substitutions follows the chain as printed.

B1: 2382H09 (designed binder)
chain: MGVSDVPRDLEVVAATPTSLLISWDAPAAAYGYYRITYGETGGNSPVQEFTVPSSKGTATISGLKPGVDYTITVYAVEFDFPGSGYYHRPISINYRTEIDKPSQHHHHHH
notes: Anti-PCSK9 Adnectin, His6-tagged
B2: 2382H10 (designed binder)
chain: B1 chain with A29G, A30G, S54V
notes: as for B1
B3: 2451H07 (designed binder)
chain: MGITDVPRDLEVVAATPTSLLISWNPPDVNYGYYRITYGETGGNSPLQEFTVPVSKGTATISGLKPGVDYTITVYAVEYPYAHAGYYHRPISINYRTEIDKPSQHHHHHH
notes: as for B1
B4: 2381D04 (designed binder)
chain: MGVSDVPRDLEVVAATPTSLLISWEPFSRLPGGGEYYRITYGETGGNSPLQQFTVPGSKGTATISGLKPGVDYTITVYAVEFPYDHSGYYHRPISINYRTEIDKPSQHHHHHH
notes: as for B1
B5: 2381B02 (designed binder)
chain: B4 chain with F82Y, H86Y
notes: as for B1
B6: 2381B04 (designed binder)
chain: B4 chain with F82Y, D85E
notes: as for B1
B7: 2381B08 (designed binder)
chain: MGVSDVPRDLEVVAATPTSLLISWDAPADGGYGYYRITYGETGGNSPVQEFTVPSSKGTATISGLKPGVDYTITVYAVEYTFPGAGYYHRPISINYRTEIDKPSQHHHHHH
notes: as for B1
B8: 2381F11 (designed binder)
chain: B7 chain with S55V, G58S
notes: as for B1
B9: 2381G09 (designed binder)
chain: B7 chain with D29G, G30D, S55V, Y80F
notes: as for B1
B10: 2381H09 (designed binder)
chain: B7 chain with D29G, S55V, Y80F, T81D, P83V
notes: as for B1
B11: 2382C05 (designed binder)
chain: B7 chain with G31A, S55V, T81S
notes: as for B1
B12: 2382D03 (designed binder)
chain: B7 chain with G30E, G31A, S55V, Y80F, T81D
notes: as for B1
B13: 2382E03 (designed binder)
chain: B7 chain with D29G, G30D, S55V, Y80F, T81D
notes: as for B1
B14: 2382E05 (designed binder)
chain: B7 chain with D29E, S55V, Y80F, T81D
notes: as for B1
B15: 2382G04 (designed binder)
chain: B7 chain with D29G, Y80F, T81D
notes: as for B1
B16: 2382H03 (designed binder)
chain: B7 chain with D29E, G31A, S55V, T81P, F82Y, G84F
notes: as for B1
B17: 2451C06 (designed binder)
chain: MGVSDVPRDLEVVAATPTSLLISWDAPAGAASYGYYRITYGETGGNSPVQEFTVPVSKGTATISGLKPGVDYTITVYAVEFPFPGAGYYHRPISINYRTEIDKPSQHHHHHH
notes: as for B1
B18: 2382F05 (designed binder)
chain: MGVSDVPRDLEVVAATPTSLLISWDAPAEAGKHYGYYRITYGETGGNSPVQEFTVPVSKGTATISGLKPGVDYTITVYAVEFDFPGAGYYHRPISINYRTEIDKPSQHHHHHH
notes: as for B1

The binders below were run against T1, human PCSK9 (proprotein convertase subtilisin kexin type 9) (human, UniProt Q8NBP7 31-692) (assay: BLI Octet Red, 37 C).
T1 construct: Directly immobilized (SPR ProteOn), biotinylated (BLI), or in solution, depending on the assay; also called hPCSK9
Description: (§1) Tips were then immersed into a buffer-only well for observation of Adnectin dissociation. Experiments were performed in a temperature controlled environment at either 25 or 37° C., and the oscillation speed was set at 1500 rpm.
(§2) Binding interaction analysis was performed using proprietary software from Fortebio (Fortebio Data Analysis Software version 6.3.0.36). Global fits were performed for all samples, using a 1:1 binding model. The nature of these global fits constrained all values of concentration to a single pair of association and dissociation rates that were themselves constrained to each other. Affinities (KD), association and dissociation rates were averaged over the various loading levels used in the analysis.

Row | Binder | Kd [nM]
1 | B1 | 1.86
2 | B2 | 1.4
3 | B3 | 2.08
4 | B4 | 0.237
5 | B5 | 3.29
6 | B6 | 0.527
7 | B7 | 4.11
8 | B8 | 1.59
9 | B9 | 1.12
10 | B10 | 3.23
11 | B11 | 2.49
12 | B12 | 1.53
13 | B13 | 2.94
14 | B14 | 0.604
15 | B15 | 1.11
16 | B16 | 0.677
17 | B17 | 1.27
18 | B18 | 4.54

What follows are binders tested against T1, human PCSK9 (proprotein convertase …) (assay: FRET, competitor ATI001125).
Description: (§3) Table 11 summarizes the overall data from these three FRET assays.

Row | Binder | IC50 [nM]
19 | B1 | 0.3
20 | B2 | 0.4
21 | B3 | 0.2
22 | B4 | 0.5
23 | B5 | 0.5
24 | B6 | 0.5
25 | B7 | 1
26 | B8 | 0.8
27 | B9 | 1.1
28 | B10 | 0.5
29 | B11 | 0.9
30 | B12 | 0.6
31 | B13 | 0.5
32 | B14 | 0.4
33 | B15 | 0.5
34 | B16 | 0.3
35 | B17 | 0.4
36 | B18 | 0.9

Each binder was assayed against T1, human PCSK9 (proprotein convertase …) (assay: FRET, competitor EGFA peptide).
Description: as §3

Row | Binder | EC50 [nM] | IC50 [nM]
37 | B1 | 0.9 | 0.9
38 | B2 | 2.6 | 2.6
39 | B3 | 0.2 | 0.2
40 | B4 | 2.9 | 2.9
41 | B5 | 2.5 | 2.5
42 | B6 | 2.4 | 2.4
43 | B7 | 2.6 | 2.6
44 | B8 | 4 | 4
45 | B9 | 3.1 | 3.1
46 | B10 | 3.4 | 3.4
47 | B11 | 4 | 4
48 | B12 | 3.3 | 3.3
49 | B13 | 2.4 | 2.4
50 | B14 | 2.8 | 2.8
51 | B15 | 2.9 | 2.9
52 | B16 | 3.4 | 3.4
53 | B17 | 1.2 | 1.2
54 | B18 | 2.4 | 2.4

The binders below were run against cynomolgus monkey PCSK9 (cynomolgus monkey, UniProt A0A7N9D9N8 150-747) (assay: FRET, competitor EGFA peptide).
Description: as §3

Row | Binder | EC50 [nM]
55 | B1 | 17.9
56 | B2 | 18.2
57 | B3 | 27.1
58 | B4 | 12
59 | B5 | 9.8
60 | B6 | 17.3
61 | B7 | 27.1
62 | B8 | 26.5
63 | B9 | 25.2
64 | B10 | 20.2
65 | B11 | 27.2
66 | B12 | 11.8
67 | B13 | 10.8
68 | B14 | 12.6
69 | B15 | 20.1
70 | B16 | 19.8
71 | B17 | 24.7
72 | B18 | 14.6

Each binder was assayed against T1, human PCSK9 (proprotein convertase …) (assay: BLI, biotinylated hPCSK9 on sensor tips).
Description: as §1, §2

Row | Binder | Kd [nM] | koff [s⁻¹] | kon [M⁻¹ s⁻¹]
73 | B1 | 1.86 | 0.000483 | 251000
74 | B2 | 1.4 | 0.000382 | 288000
75 | B3 | 2.08 | 0.00094 | 448000
76 | B4 | 0.237 | 6.9e-05 | 266000
77 | B5 | 3.29 | 0.000831 | 265000
78 | B6 | 0.527 | 0.00016 | 309000
79 | B7 | 4.11 | 0.00094 | 213000
80 | B8 | 1.59 | 0.000522 | 323000
81 | B9 | 1.12 | 0.000291 | 271000
82 | B10 | 3.23 | 0.00046 | 136000
83 | B11 | 2.49 | 0.000879 | 368000
84 | B12 | 1.53 | 0.000663 | 354000
85 | B13 | 2.94 | 0.000596 | 220000
86 | B14 | 0.604 | 0.00025 | 436000
87 | B15 | 1.11 | 0.000464 | 419000
88 | B16 | 0.677 | 0.000557 | 471000
89 | B17 | 1.27 | 0.000435 | 347000
90 | B18 | 4.54 | 0.00109 | 244000

These binders were tested against T1, human PCSK9 (proprotein convertase …) (assay: FRET direct binding, anti-his6 antibody).
Description: as §3

Row | Binder | EC50 [nM]
91 | B1 | 3.6
92 | B2 | 4.6
93 | B3 | 13.2
94 | B4 | 3.7
95 | B5 | 8.4
96 | B6 | 4.2
97 | B7 | 4.1
98 | B8 | < 1
99 | B9 | 4.5
100 | B10 | 4.1
101 | B11 | 3.4
102 | B12 | 3.3
103 | B13 | 3.7
104 | B14 | 3.8
105 | B15 | 3.6
106 | B16 | 3.8
107 | B17 | 5.5
108 | B18 | 3.8
